From patent US20120214173A1, “Methods of Identifying Modulators of an Ehd Polypeptide” (priority 2007, published 2012)
“Also recorded” adds a separate entry of the source.

B1: EHD2 double mutant of the two side-site xPF motifs (F122A/F128A) (protein)
chain: MFSWLKKGGARGQRPEAIRTVTSSLKELYRTKLLPLEEHYRFGSFHSPALEDADFDGKPMVLVAGQYSTGKTSFIQYLLEQEVPGSRVGPEPTTDCFVAVMHGETEGTVPGNALVVDPEKPARKLNPAGNTFLNRFMCAQLPNQVLESISIIDTPGILSGAKQRVSRGYDFPAVLRWFAERVDLIILLFDAHKLEISDEFSEAIGALRGHEDKIRVVLNKADMVETQQLMRVYGALMWALGKVVGTPEVLRVYIGSFWSQPLLVPDNRRLFELEEQDLFRDIQGLPRHAALRKLNDLVKRARLVRVHAYIISYLKKEMPTVFGKENKKKQLILKLPVIFAKIQLEHHISPGDFPDCQKMQELLMAHDFTKFHSLKPKLLEALDDMLAQDIAKLMPLLRQEELESVEAGVQGGAFEGTRMGPFVERGPDEAIEDGEEGSEDDAEWVVTKDKSKYDEIFYNLAPADGKLSGSKAKTWMVGTKLPNSVLGRIWKLSDVDRDGMLDDEEFALASHLIEAKLEGHGLPTNLPRRLVPPSKRRQKGSAE
B2: K328D: EHD2 polybasic cluster mutant (protein, UniProt Q8BH64 1-543, looked up, variant K328D)
EH domain-containing protein 2: MFSWLKKGGARGQRPEAIRTVTSSLKELYRTKLLPLEEHYRFGSFHSPALEDADFDGKPMVLVAGQYSTGKTSFIQYLLEQEVPGSRVGPEPTTDCFVAVMHGETEGTVPGNALVVDPEKPFRKLNPFGNTFLNRFMCAQLPNQVLESISIIDTPGILSGAKQRVSRGYDFPAVLRWFAERVDLIILLFDAHKLEISDEFSEAIGALRGHEDKIRVVLNKADMVETQQLMRVYGALMWALGKVVGTPEVLRVYIGSFWSQPLLVPDNRRLFELEEQDLFRDIQGLPRHAALRKLNDLVKRARLVRVHAYIISYLKKEMPTVFGKENKDKQLILKLPVIFAKIQLEHHISPGDFPDCQKMQELLMAHDFTKFHSLKPKLLEALDDMLAQDIAKLMPLLRQEELESVEAGVQGGAFEGTRMGPFVERGPDEAIEDGEEGSEDDAEWVVTKDKSKYDEIFYNLAPADGKLSGSKAKTWMVGTKLPNSVLGRIWKLSDVDRDGMLDDEEFALASHLIEAKLEGHGLPTNLPRRLVPPSKRRQKGSAE
B3: I157Q: EHD2 mutant with re-introduced catalytic glutamine in the active site (protein, UniProt Q8BH64 1-543, looked up, variant I157Q)
EH domain-containing protein 2: MFSWLKKGGARGQRPEAIRTVTSSLKELYRTKLLPLEEHYRFGSFHSPALEDADFDGKPMVLVAGQYSTGKTSFIQYLLEQEVPGSRVGPEPTTDCFVAVMHGETEGTVPGNALVVDPEKPFRKLNPFGNTFLNRFMCAQLPNQVLESISIIDTPGQLSGAKQRVSRGYDFPAVLRWFAERVDLIILLFDAHKLEISDEFSEAIGALRGHEDKIRVVLNKADMVETQQLMRVYGALMWALGKVVGTPEVLRVYIGSFWSQPLLVPDNRRLFELEEQDLFRDIQGLPRHAALRKLNDLVKRARLVRVHAYIISYLKKEMPTVFGKENKKKQLILKLPVIFAKIQLEHHISPGDFPDCQKMQELLMAHDFTKFHSLKPKLLEALDDMLAQDIAKLMPLLRQEELESVEAGVQGGAFEGTRMGPFVERGPDEAIEDGEEGSEDDAEWVVTKDKSKYDEIFYNLAPADGKLSGSKAKTWMVGTKLPNSVLGRIWKLSDVDRDGMLDDEEFALASHLIEAKLEGHGLPTNLPRRLVPPSKRRQKGSAE

What was measured:
EHD2 = target: T1, EHD2 (Mus musculus, UniProt Q8BH64); assay: Multiple turnover ATPase assay (nucleotide hydrolysis by HPLC) with or without Folch liposomes; assay type: biochemical
T1 construct: Mouse EHD2 full-length protein and all mutants were expressed as N-terminal His-fusions followed by a PreScission cleavage site; His (N, cleaved yes); made in house; host or cells: Escherichia coli BL21 DE3 Rosetta
T1 sequence (Q8BH64 1-543): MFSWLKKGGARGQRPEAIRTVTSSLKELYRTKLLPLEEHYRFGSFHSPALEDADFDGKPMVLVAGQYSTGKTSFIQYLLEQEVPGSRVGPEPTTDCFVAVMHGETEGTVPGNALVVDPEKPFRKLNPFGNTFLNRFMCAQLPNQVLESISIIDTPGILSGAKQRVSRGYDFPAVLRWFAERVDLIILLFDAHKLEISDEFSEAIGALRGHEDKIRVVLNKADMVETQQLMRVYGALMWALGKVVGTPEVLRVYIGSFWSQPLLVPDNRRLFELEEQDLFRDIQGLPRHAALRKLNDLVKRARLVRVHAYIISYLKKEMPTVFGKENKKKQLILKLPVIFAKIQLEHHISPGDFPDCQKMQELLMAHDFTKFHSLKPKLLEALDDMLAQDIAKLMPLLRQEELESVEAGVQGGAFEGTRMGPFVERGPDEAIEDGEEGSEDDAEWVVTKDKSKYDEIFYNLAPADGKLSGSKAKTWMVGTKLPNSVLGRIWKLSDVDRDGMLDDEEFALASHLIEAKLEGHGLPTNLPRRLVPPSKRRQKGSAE
Method: (§1) Amino acid numbering corresponds to mouse EHD2. b, EHD2 binds to adenine nucleotides, as determined by ITC. For clarity, ΔΔH=ΔHn−ΔH1 is plotted. […] Images were acquired close to the basal cell surface. f, Nucleotide hydrolysis was measured by HPLC in the absence (empty symbols) or presence of Folch liposomes (filled symbols). Data represent mean and standard deviation for two (intrinisic reactions) or three (stimulated reactions) independent experiments.
(§2) ITC measurements were performed at 10° C. in 20 mM HEPES (pH 7.5), 300 mM NaCl, 2 mM MgCl2. Liposome binding assays were performed as described previously (www.endocytosis.org). Multiple turnover ATPase assays were performed in 20 mM HEPES (pH 7.5), 135 mM NaCl, 15 mM KCl, 1 mM MgCl2 at 30° C. with 10 μM EHD2 (or mutants) as enzyme and 100 μM ATP as substrate, in the absence or presence of 1 mg/ml Folch liposomes (Sigma-Aldrich).
(§3) Reactions were started by the addition of the protein to the final reaction mix and nucleotide hydrolysis was followed using standard HPLC measurement^27. Initial rates were determined by applying a linear fit to data points up to 40% nucleotide hydrolysis. For electron microscopic studies, 2.5 μM EHD2 in 20 mM HEPES (pH 7.5), 150 mM NaCl, 1 mM MgCl2 was incubated for 15 min at 25° C. in the presence of 1 mM nucleotide and 0.05 mg/ml (final concentration) of the indicated liposomes. Samples were spotted on carbon-coated copper grids (Canemco and Marivac) and negatively stained with 2% uranyl acetate.
We next monitored the effect of membrane-binding on the ATPase activity of. EHD2 under multiple-turnover conditions (10-fold excess of ATP over EHD2), in the presence and absence of Folch liposoines (FIG. 1f). The intrinsic/background ATPase activity is extremely slow (kobs=0.7 h^−1) but is stimulated 8-fold in the presence of Folch or PS liposomes (kobs=5.6 h^−1).

[1] = Negative stain EM of liposome tubulation/oligomerisation; settings: 2.5 μM protein, PS liposomes
Method: as §1
EHD2 was incubated with the indicated liposomes in the presence and absence of nucleotides and analysed by EM as described in Methods. a, EHD2 deformed PS liposomes into tubular networks, here in the presence of ATP-γ-S. b, Enlarged views of the indicated area in a. Note the presence of regularly spaced EHD2 rings (some are indicated with arrows). This even spacing may be due to the curvature stress generated by an EHD2 ring along the axis of the lipid tubule which might disfavour binding of the next ring in the direct vicinity (see below). c, Some of the lipid tubules (especially at higher protein concentration) were tightly packed with EHD2 oligomeric rings. d,e In the presence of ADP and in the absence of nucleotide (f,g), EHD2 also tubulated PS liposomes and formed ring-like structures around the tubules. e,g are enlarged views of the indicated areas in d and f, respectively.
as §3
Nucleotide-independence of liposome tubulation in vitro is also observed for dynamin^16. No noticeable tubule fission or alteration in tubule diameter was found for EHD2 in the presence of ATP. […] Folch liposomes were also tabulated by EHD2. However, with synthetic liposomes containing only 2.5% PIP2 and in the absence of PS, the amount of EHD binding was reduced, and in this less favourable binding condition we only observed tubulation in the presence of ATP-γ-S and ADP but not in the absence of nucleotides (FIG. 7).

HeLa cells = assay: Over-expression of EGFP-tagged EHD2 and mutants in HeLa cells (confocal / live imaging); assay type: cell-based; settings: for distribution of EGFP-tagged protein over-expressed in HeLa cells: 24 h after transfection, fixed
Method: as §1
(§4) Nucleotide hydrolysis was measured as described in FIG. 1f. In vitro tubulation activity of PS liposomes was analysed as described in FIG. 1d. f, EGFP-tagged mutants were over-expressed in HeLa cells. […] For each construct, three independent experiments with ≈50 cells/experiments were analysed.
Ultracentrifugation. Sedimentation velocity experiments were performed in a Beckman Optima XLA ultracentrifuge, using an An-60Ti rotor. Centrifugation was at 50,000 rev×min and 5° C. at an EHD2 concentration of 15 μM, with scans as fast as possible (˜1.5 min intervals). The data were analysed using DCDT+ v.2^44,45, with the partial specific volume for the protein (from the amino acid composition) and solvent density and viscosity calculated using Sednterp^46. Selected scans (at equal, ˜15 min intervals), and of g(s20,w) (the amount of material sedimenting between s20,w and (s20,w+δs)) and also the residuals for fitting the data with DCDT+, were plotted with the program profit v.5.6.7 (Quantum soft, Switzerland). Cell biology. N-terminal EGFP-tagged EHD2 and all mutants were over-expressed in HeLa cells from the pEGFP-C3 vector (Clontech). HeLa cells were grown as per ECACC guidelines with 10% fetal bovine serum and transfected using Genejuice (Novagen) for transient protein expression. 24 h after transfection, cells were fixed for 10 min at 37° C. in 3% paraformaldehyde and mounted. All confocal images were taken sequentially using a BioRad Radiance system and LaserSharp software (Biorad). For real-time microscopy, transfected cells on glass-bottom Petri dishes (WillCo Wells BV, Amsterdam) were washed with 25 mM HEPES (pH 7.5), 125 mM NaCl, 5 mM KCl, 10 mM D-glucose, 1 mM MgCl2, 2 mM CaCl), and epifluorescence images were taken using an Olympus IX70 microscope (Southhall, UK) and Argon laser (Melles Griot, Carlsbad, Calif.) with a Princeton instruments (Trenton, N.J.) cooled I-PentaMAX camera with MetaMorph software (Universal imaging).
EHD2 wild-type was over-expressed in HeLa cells for 24 h and imaged by EPI-fluorescence for approximately 30 min.
EHD2 T94A was over-expressed in HeLa cells for 24 h and imaged by EPI-fluorescence for approximately 30 min. […] EHD2 I157Q was over-expressed in HeLa cells for 24 h and imaged by EPI-fluorescence for approximately 30 min.

[2] = Liposome co-sedimentation (membrane binding) assay; settings: Folch / PS liposomes
Method: as §1, §4, §2
Mouse full-length EHD2 was expressed in bacteria and purified to homogeneity (FIG. 5). The purified protein was nucleotide-free as judged by HPLC analysis. […] It was previously reported that EHDs—despite having a predicted G-domain—bind to adenine nucleotides^15. […] We still refer to this domain as a G-domain because the sequence and fold (see below) are clearly similar to other G-domains. […] Using synthetic liposomes containing various different phosphatidyl-inositols (PI) (FIG. 1c) we observed best binding to liposomes containing PI(4,5)bisphosphate (PIP2).

Molecule	membrane-stimulated ATPase activity (in words) (EHD2; presence of Folch liposomes)	membrane-stimulated ATPase activity (in words) (EHD2; presence of Folch liposomes, listed as mutation of the side site xPFs motif)	membrane-stimulated ATPase activity (Q8BH64)	liposome tubulation / oligomerisation by EM [1]	distribution of EGFP-tagged protein over-expressed in HeLa cells (HeLa cells)	binding to liposomes (co-sedimentation) [2]	kobs stimulated ATPase reaction (EHD2; 10 μM protein, 100 μM ATP, 30° C., presence of 1 mg/ml Folch (or PS) liposomes) [h⁻¹]	decrease in the stimulated ATPase rate versus wt (EHD2; presence of Folch liposomes) [%]	dynamics of tubules and puncta by EPI-fluorescence live imaging (HeLa cells; over-expressed 24 h, imaged approximately 30 min)	intrinsic/basal ATPase activity (in words) (EHD2; absence of membranes)
B1	did not show any membrane-stimulated ATPase activity	completely prevented the membrane-stimulated ATPase reaction	did not show any membrane-stimulated ATPase activity	did not find any regular oligomers on liposomes	–	–	–	–	–	–
B2	reduced ATPase stimulation	–	–	–	completely cytoplasmic distribution	bound less to liposomes	1.6	75	–	–
B3	not further stimulated by membranes	–	–	tubulated liposomes	exclusively punctate staining; also recorded: labelled only very short tubules and puncta	–	–	–	No tubules can be found and the puncta are mostly motile	hydrolysed ATP faster than wild-type
